In the NTF2 design screens of Basanta et al. (2020) one finds protease stability score data, which are given here for 47 sequences.

The nature of the series: protease stability score; higher = more stable; yeast display proteolysis, trypsin and chymotrypsin.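 Further: relative to predicted unfolded state with 0 unfolded-like and 1 meaning tenfold more protease.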
“DEEEEYAHRFVEDFIDAWLTGDEDRLEELMDPNVKIVVGDKVLVGRHLVIRLMHEWIRKYKGIKFVFHVKHLEAINGRLEIESEVDLRINGRKIKHTSKMVVRKIDGKWEIREFHLN” came in with a protease stability score of 2.38. With “DEEEEYAIEFVILHIEALKTGDERKLEHLMDPHYKLDYNGRKVHGREQWLRFLNEWRVHIHDIKVDDHDVVNGRVILHVTIHGTVIFDGRNIRTHHEQEYVLHKVNGRWHFHSMIVR”, the protease stability score was found to be 1.5. Sequence “DEEEEYHRRVLETITRARLTGDEDLFRKNVDPDVKIEVHVGNFRFHDVGWEHLRRWIEELGFEIHHIEIKHEHVINGVMHQESERDGTFNGVRDRVKVRFIYFIVNGRIKHIRFEVE” showed a protease stability score of 0.781.

“DEEEEYLHKRAREFFRSFLTGDWHFLMHLLDPNVRWEVIIGNKRIERHGREELFKDLLRWLEEIRIKRMHVEEIHVFDGQLFMRVSAHGEFNGKERDTHEELVVVVVNGRFKSARIHVH”: the protease stability score was determined as 1.65. “DEEEEYYRRAVEIHERVLRTGDWRQLRELMDPRTKIDVGDKSFHGRDTITHWTKEMLEKFGVTKVEFHFDHLEMQGDKANIRGTLQINGQPIDISIHSVKIDGRWLIKFVKID” had a protease stability score of 0.822. Sequence “DEEEEYYRVAIEIWLRVMMTGDPKYFDRLADPHVRVEQGDKRLHGMEDWSKRLEHMRIDHINIHQFKVVNGKIHVDTEVRGDVDGVEFRTRMELIFEKVDGRWILRRIHIN” displayed a protease stability score of 2.71. In the case of “DEEEHALWHWFQEHVHALETGDEDTLRELADPNVRLDINGKRIHGRHQLEHLIHRIDHMRIDDYKIDHVDRQGEKVIIDGTFHGKIIQGDKTIHMHTRVIIILLKVDGQWRLKSEQID” it was 1.12. “DEEEHDARELARIVIEQFLTGNEDMLREFMDPNTRLHVNGVHRHGRESMVIMLRQLRTKRVHIKSIRIIGEKVDVDGILNGEVNGVEDNHQVHFHLIKVDGQWYIHHVIIR” came in with a protease stability score of 1.39. Regarding “DEEEHDLRLAVELWHRLLETGDERVEKHLIDPHVRVHFNGRDLHGREAATWTLRTMGVKVFELKRIETFNGQVNIHQHVNVDGQHYDLIIHARKIDGRWVNESMRIH”, the protease stability score is 0.667.

“DEEEHDVEVAFREYVKSTKTGDEDTLRHLADPHVKIWVDGRDFHGREVYYRLEKKIMEEWRFHDMHVEHVLVQGNKMTLHTRIDGEFDGKKVNLEVIIISVKVDGQWMIHSLEHR”: the protease stability score stood at 2.22. Consider “DEEEHEAKRADEVYQHVMETGDERLLNEYFDPHYRLEQGDYELVGREEASRFLIEWMKHWRTEYRLDNYHVIGNKIRLEGELHIRYGNFTRSHRIVTYVLKVDGQWRIKKTEIR”, for which the protease stability score came out at 1.64. “DEEEHEEKRLLEMHLHYLATGDEENLKKLLDPNVKLVVNGREIHGRERIIEFIRRLIEMWGVDRIDSRIRHVTSQGDKIRLEGEWIVGEKVIDTRLLAVKVDGRWVEETLILK”: the protease stability score was determined as 2.13. As to “DEEEHEIRQAIELEIRLIETGDFKAMRKMADPHVRTHINIGDKRLDLHGRDFFEWWLRFVKGVTHRFEDFVSVGNKVHIIVQDQVGDKRYEVKIVFKKVDGRWRMTESEVHFE”, the protease stability score is 1.83. On to “DEEEHELLHFVHLWIDILRTGDWEKISEYADPNVKLIVGDKIFIGMEAFIEFMERFLRRVDHVQYEIRSIRAYDGVIEMHTEVREHQGDKEIHTEVHITFFVYNGVKKHIEIRIK”, for which the protease stability score was found to be 2.48. “DEEEHELQEAIEILKHDIETGNWERFVKRADPHARIRFNGRDLHGWERMKEVFEHVSKEFQNQKVEFETEHYFDGRVEVIVNIRIGDKNIHMRIISDKINGQWITREVRFH” returned a protease stability score of 1.41.

In the case of “DEEEHEWRKVIHELLHAFMTGDWKRFLKLVDPHAKFLVDGQEMHGREVLKHYIDRIKNMRIEIRDETYDMVDGRMHSIFQLELTQGEYRHESYIEVIIKKFDGRWRVHEVDFEIR”, the protease stability score worked out at 2.18. Take “DEEEHHIKTLLELHWEIWKTGDEDRFRELADPNTKLIVNGREVIGRERVAKVIHDILRHMRFHDFTLERDKIYNGQVDLHGTEYGHINGKNIERTHVFHIVIVNGVLKSIELRIH”: the protease stability score is 1.01. As for “DEEEHHMKLAYDILLQTLRTGDEDLMERLIDPNVRFELLIGDFILHIHGWELVVEWDIRIARQWRIEHVHIKRYEVFNGRSRVNVKIDGVVNGRRYRFDIIELSLVIDGRVHHRSQEII”, the protease stability score amounted to 0.835. “DEEEHIARHIFEHFITWLLTGDEEVLKDLADPNVRLDINGRHVVGREEFRRWLKEDLEHLRIHDMDLRRVRVQGNKMDLDVQVDGIVNGQHRHHNTRLIFEKVDGRWLLRSIIVK” came in with a protease stability score of 2.16. Sequence “DEEEHIERTFKDLFEHALETGDEHLLKRLLDPHARFDINGRDFHGREEVRRFWEETEKKLGIKHSEFRFRRRDHQGDFVRIDLHVIIFIGDKIEHREVEFFLTKIDGVWMIREVRVR” returned a protease stability score of 0.613.

“DEEEHIFQELIELWQTAMATGDEERTDRLLDPNAKIVINGVELHGMDEIKRLLEQMRLHVHDVKIDEIKFQGDYLHIDTTSDIIMRINGREHRIIVKTTVRMLKFDGRWWLHVISIR”: the protease stability score stood at 1.93. Take “DEEEHIMKHELEKWWETVDTGDEDEMLRLADPNVRVDFNGREFVGREEFLKHVEFMVKEWRLTDRRIEREHVIDGKMIIHMRVHGTFNGKETDTRIEIILHVVDGKVKSEEYRIK”: the protease stability score turned out to be 2.06. In the case of “DEEEHIMRRVTDILVHYIATGDEDSLTRLLDPHARIIIDGRTIHGREWIQHHLRRIDHIHMHSYHIHDIRIQGDKVYADQEIDVEHRVNGVTIRKRFHVNIITVKVNGQWYLHSINNQ” it was 1.45; in that of “DEEEHKSKLAVELWHKVEETGDENTMKRLADPNVRIDINGVELHGMEVLVRRLREMGADHFHVDLRRVTVVNGRVHVNTEVIIRQGDKVIILTTRLHIEKVDGRWKITTIEFE”, 1.32; in that of “DEEEHLARKIATIMIHTLITGNEEEMRRLADPTTRFHDEDHTFHGMEEYNRFIKEWRERFPGVKEEWKIRHIHVINGVAHFDIELRIIVGDKEVSDRVEFIIVVVDGRVKSFELRHK”, 2.15. In turn, “DEEEHLLRRVSHFWARARKTGNEEVIRDLMDPNMRSTINGVEFHGREEHLHTLREWRVKSVHFEHVHVVDGRIEIKMREDGFVNGRETHFTLRITIVIIDGVVHHISIDLR” showed a protease stability score of 0.787.

As to “DEEEHLMREALNTFMRTLETGDERQLNELLDPDVRSRVDGQDLHGREHVVRLFEEFRRQARIHHVDVHHMDVIGDWIRVELRVDIRIGDKLYTYKKHIVALKVDGRWFMHRVEIH”, the protease stability score was found to be 0.773. “DEEEHLSKEAVRLYIESLHTGDEDLWRSLMDPNARLHINGREFHGMERVLRILREIRIKDTRIRDFHVVNGQVHNRMELEIKVGDKERSFDVELIAYKIDGRWITKSVIHH” yielded a protease stability score of 1.29.

For the sequence “DEEEHNLKKFLEIFLKAERTGDEEALRRMLDPNTKFVVGDKTYHGREEYIRWLNEIRIHRTEDKHIEVQGNKLHMDTRRRMEIDGREIDTEVRLELEVINGVVKLIIVDIR”, the protease stability score turned out to be 1.86. Sequence “DEEEHNSQYAEELHIHLQETGDFEEFKKNVDPHVRLHSEINGKELRLHGRKIAEWLIEFWIKRIPNATIELHDSSIYNGKMHLDQRIKIGDKSMIVIVILEKVNGVWRVREMHITVR” displayed a protease stability score of 1.37. For the sequence “DEEEHRIIRFIKKVLDDIVTGDWDSFRRNLDPNAKLSAEFEGRREEHVGRDIATRWMREIRIHDMEIKDMRLIDGVNIVKGHFDGRINGQRIRTDTEIWLYVVDGRITSVTIHII”, the protease stability score came to 0.776. Sequence “DEEEHRLRHFSELFTELFKTGDWKTFAKLMDPEVRTHSEWNGQEFSDHGMEAIVHFFKEFVDKFKNLTFHLTRIEVQGDKVHIDTILIFNGKTFTTRLEFIVVNGRIKEVRYHVK” showed a protease stability score of 1.13. To “DEEEHRVENMYHRWLHLWETGNEERLTELLDPNTRIVVGDKQIHGREEAHRVLQEFLKRADHIEEFRIHHLRVVGNKVESDTRLRGEIDGRDIDTRVHVHLLVIDGRLREINIQLE” belongs 1.57. Take “DEEEHSAEHAIRILIELLYTGDEDQLERFMDPNTRLHIYFEGHEIHHHGMELISEIFSEIIHRIKNITYRVEDFHLVNGRVHLHGRWNINGKRTKEHWVVLKVDGVWILERVHIHIQ”: the protease stability score was determined as 1.27. In the case of “DEEEHSLRLALKILIHTRRTGDEHLLTEMADPNTRLDVNGVEVHGMEIFSKLTHEVVKRADHVEVHVKHIDIYGDKIRVHSEINYRQGDKEHSEKVHLVIKKFNGRWILHFVHIG” it was 1.48. For “DEEEHSYEWAHKVSRHTTETGNEDLSRELADPNVRVIIGDKEYHGWKFMTHLLAHLRIKHIIIRSIRVQGNKLDLNEEVHGEIDGKDETFKLDLVILKVNGRWVIKSVRVE”, the protease stability score worked out at 0.612. For “DEEEHTAHVAHKLWEDSLHTGNEDNHRKLLDPHARIIVNGRLLHGWEDVEKILKDLGIKVMHMELERIKVVGDKLRIVGHLETRFDGRTIRLREELVVRKFNGRWHIEEINIL”, the protease stability score is 1.24. As to “DEEEHVAWKIMEVFLEDLLTGDEDMLNRMADPHVRVIINGRENHGRESFEEFVRQIRIEDTRLKHVEIRTIGNKIHIYVHGELRLNINGKRIDRKTTWIFVIQKYDGRWILRFILIDIH”, the protease stability score amounted to 2.31. For “DEEEHWAKEFLKIESEAMMTGDEESLIELIDPDARIQIGDKKYHGMEFVKYLFEQERKKLGIERVHVEFELKEIHYQGNYMIVDGIIRRSYGDKTETRRVIIYLIKFDGQWVIESIQFL”, the protease stability score came out at 0.863. As for “DEEEHWLKHWTDLHLFARITGDEELLMKMLDPDVRFHIGDKESHGREEVARLLIELWIHNQHVRRRIIVNGVSHIHGELDGEINGVRHRTEIEIHILVIDGRIHEIIIKVH”, the protease stability score amounted to 1.24. “DEEEHYLREYLRIVDEELHTGDEKLLAKLLDPEVRVDFNGVVNIGWETVRRHVHHIWMIFRDSKIHDVKVQGDKMIADGRVDVEIIVNGRTHRLELDTNLIFRKVNGRWVMQEIKIG” gave a protease stability score of 2.25. In the case of “DEEEIALKRIVELWLEVIETGDERITEHLLDPRARFEFENHSRHGRKELTRWMTQLGIKYLDLHRMHIRVFDGRLHVHIDGTEIYDGVRRKSEIRMDVLKVDGKWLVEEYSIRFK” it was 1.25; in that of “DEEEIEIRRIWERELHWRSTGDEKSLIELMDPRTIIEINGREIHGREEADRHVHEFAEKYKNVRVRYFVREIEVQGEFVHVHTEITLDFDGVEIRFFMILIILKIDGRWLSHRVIVH”, 0.81; in that of “DEEEIHNRLAYRLSHELLETGDWHLMILLADPHVRFEDENHEAHGREEYKEHLNEIHELLGLEKFEVRIHSWRVYDGRVIVHGHILFNGVEFNVETVSLKFNGRWIIEEQRLE”, 1.36. In turn, “DEEEKAHEHMLRVLLHLERTGNEKALTEMADPNVRIDWNGKEDHGMEHLLRHLREIRIKNFELTDERHQGDKIELRGRLHGFIGDKHIILEVELVWRKVNGRWQLTSMHIK” registered a protease stability score of 1.45. Turning to “DEEEKALDHAWRRFLETLKTGDERKFHELLDPNVQIDWNGRKLHGMHLIVDIIRRVKNLKSHEIHIRHITVIGDKVEFRSDIRGTVDGVDTEIHTRYLFLKIDGQWVLHHEEIV”, the protease stability score is 2.22. To “DEEEKATHEAIEEIIETLRTGDEHIMRELMDPHVKVVQGDKEHHGRESFIKWMRLWFERAGVDQIDMRIKDHDSQGEKITLDGSLYVNGVEIDTHIISHKINGRWLNRSVIIQ” belongs 1.22.
